{"source": "paper PMC10633859", "key": {"SIRT6(1-300)": {"biological_target": "SIRT6(1-300) (human, UniProt Q8N6T7 1-300)", "sequence (Q8N6T7 1-300)": "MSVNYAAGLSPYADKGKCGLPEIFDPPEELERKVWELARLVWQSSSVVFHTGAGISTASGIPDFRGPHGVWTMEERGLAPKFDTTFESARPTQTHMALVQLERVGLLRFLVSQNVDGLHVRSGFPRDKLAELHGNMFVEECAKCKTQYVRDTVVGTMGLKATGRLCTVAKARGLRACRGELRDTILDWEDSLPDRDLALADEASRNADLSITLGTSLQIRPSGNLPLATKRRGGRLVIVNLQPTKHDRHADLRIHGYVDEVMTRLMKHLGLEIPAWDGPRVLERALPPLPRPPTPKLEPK", "assay": "EMSA"}, "[1]": {"biological_target": "SIRT6 full length (SIRT6FL) (human, UniProt Q8N6T7 1-355)", "sequence (Q8N6T7 whole entry)": "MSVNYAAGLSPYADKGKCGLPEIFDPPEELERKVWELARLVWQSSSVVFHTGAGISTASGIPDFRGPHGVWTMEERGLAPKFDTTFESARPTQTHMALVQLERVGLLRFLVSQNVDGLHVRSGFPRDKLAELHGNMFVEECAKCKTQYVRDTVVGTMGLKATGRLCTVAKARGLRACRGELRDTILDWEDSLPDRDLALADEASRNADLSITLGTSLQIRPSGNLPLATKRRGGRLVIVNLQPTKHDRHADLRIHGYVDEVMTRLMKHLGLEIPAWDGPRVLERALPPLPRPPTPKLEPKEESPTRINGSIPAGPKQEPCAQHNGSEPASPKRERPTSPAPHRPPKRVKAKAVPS", "assay": "EMSA"}}}
{"binder": "fluorescent dsDNA 47 bp (dsDNA) DNA 1: CAGATCTACCGAATCAGTCCGACGACGCATCTGCACTACGAGGATAC DNA 2: GTATCCTCGTAGTGCAGATGCGTCGTCGGACTGATTCGGTAGATCTG", "values": [{"measurement": "Kd", "setting": "SIRT6(1-300)", "value": "9.68 ± 0.39", "unit": "µM"}, {"measurement": "Kd", "setting": "[1]", "value": "1.93 ± 0.1", "unit": "µM"}]}
